The text below walks through data of patent publication US20170081400A1 (CEPHALON, published 2017).

Assay [1] concerns the target membrane TL1A on human PBMCs (human) (UniProt O95150). As to the kind of experiment: flow cytometry on human PBMCs, antibody staining against CD14 [left plot].
For assay [2], the target named is T1, human TL1A extracellular domain with N-terminal HIS and FLAG tag (human) (UniProt O95150).
T1 sequence: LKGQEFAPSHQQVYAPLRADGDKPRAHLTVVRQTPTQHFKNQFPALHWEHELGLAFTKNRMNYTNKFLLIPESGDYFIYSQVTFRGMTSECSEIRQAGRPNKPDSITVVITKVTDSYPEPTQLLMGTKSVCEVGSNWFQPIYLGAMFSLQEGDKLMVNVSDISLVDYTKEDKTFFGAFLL
Description: cell-based or functional assay.

For assay [3], the target named is T2, human TL1A extracellular domain with N-terminal HIS and FLAG tag (human, UniProt O95150 72-251).
T2 construct: whole entry named. ~70 kDa fraction purified by gel filtration
T2 sequence: T1 sequence
Description: SPR run 1; purified antibody on Protein A; TL1A 10 ug/mL; timepoint 59. The source says: (§1) 1.5. Antibody expression and antigen binding as determined by SPR. Using a CM5 sensor chip (GE Healthcare) Protein A (Pierce) was coupled to the chip surface using an amine coupling kit (GE Healthcare). Protein A was coupled on flow cell 1 and 2 (or alternatively 3 and 4) using a BIACORE® T200. […] The amount of supernatant or purified protein (as well as the concentration) injected during the capture stage varied between runs and is specified in the header of the Tables 3-11. At the end of injection of the supernatant or purified antibody the change in response units was measured. This value was reported as Capture Level in Tables 3-11. […] The response units were measured prior to the end of the dissociation phase. […] The sensorgrams were double referenced (flow cell 2 is subtracted from flow cell 1 and a buffer blank). As there were a large number of antibody variants to screen, these were screened across different runs (Tables 3-11). […] A summary of the conditions used in each run is below:
(§2) 2.1. […] In some experiment the antibodies were purified using Protein A chromatography (See 1.4) and purified antibodies were used in BIACORE® (GE Healthcare) experiments.

For assay [4], the target named is T2, human TL1A extracellular domain with …. As to the kind of experiment: SPR run 1; purified antibody on Protein A; TL1A 10 ug/mL; timepoint 590.
Excerpt: as §1, §2

The target in assay [5] is T1, human TL1A extracellular domain with N-terminal HIS and FLAG tag (human). Description: SPR Run 6, purified Ab captured on Protein A, TL1A 5 ug/mL, timepoint 170.
Assay [6] has the same target. As to the kind of experiment: SPR Run 6, purified Ab captured on Protein A, TL1A 5 ug/mL, timepoint 44.
The target of assay [7] is T3, single-site biotinylated human TL1A (human, UniProt O95150 72-251, single-site biotinylated (site not stated)).
T3 construct: construct used for biotinylation not described
T3 sequence: T1 sequence
As to the kind of experiment: competition ELISA: antibody dilutions pre-incubated with biotinylated human TL1A (1 µg/ml), added to plate-coated DR3/Fc; bound TL1A detected with streptavidin-HRP; blocked partner DR3/Fc [top panel]. How it is done: (§3) 1.8. […] DR3/Fc Chimera (R&D Systems) or DcR3/Fc Chimera (R&D Systems) was coated onto a 96-well plate (Maxisorp, Nunc) at a concentration of 2 μg/ml.
(An ELISA detects its analyte on a solid surface through an enzyme-linked reagent.)

In assay [8] the target is T3, single-site biotinylated human TL1A. As to the kind of experiment: competition ELISA: antibody dilutions pre-incubated with biotinylated human TL1A (1 µg/ml), added to plate-coated DcR3/Fc; bound TL1A detected with streptavidin-HRP; blocked partner DcR3/Fc [bottom panel]. The procedure: as §3

Positions count from the first letter of the chain named.

In the case of Isotype control (antibody), in assay [1], the number in the upper left quadrant (antibody-positive, CD14-negative cells) is 0.51 and the number in the upper right quadrant (antibody-positive, CD14-positive cells) is 0.07.

B1: 320-190 (antibody, human IgG1, name in Kabat numbering, V domains shown)
VH: QVQLVQSGAEVKKPGASVKVSCKASGYTFTSYDINWVRQAPGQGLEWMGWLNPNSGNTGYAQKFQGRVTMTADRSTSTAYMELSSLRSEDTAVYYCAREVPETAAFEYWGQGTLVTVSS
VL: QSVLTQPPSVSGAPGQRVTISCTSSSSDIGAGLGVHWYQQLPGTAPKLLIEGYYNRPSGVPDRFSGSKSGTSASLTITGLWPEDEGDYYCQSYDGTLSALFGGGTKLTVLG
notes: human IgG1, lambda
In assay [2], B1 registered an Antibody IC50, TL1A induced caspase potency assay in TF-1 cells of 0.02 µg/mL and a Fold improvement over 320-179, TL1A induced caspase potency assay in TF-1 cells of 2 fold. In addition, the “TL1A Binding Level (Early)” value in assay [3] came out at 136 RU. For the same molecule, in assay [4], the “TL1A Binding Level (Late)” value came out at 113 RU.

B2: 320-457 (antibody, human IgG1, name in Kabat numbering, V domains shown)
VH: B1 VH with I34D
VL: B1 VL with W81L
In the case of B2, the TL1A Binding Level (Late) in assay [5] was 4 RU. In addition, the TL1A Binding Level (Early) in assay [6] was determined as 6 RU.

B3: 320-331 (antibody, human IgG1, name in Kabat numbering, V domains shown)
VH: B1 VH
VL: B1 VL with W81L, Y93W
notes: human IgG1, lambda
Regarding B3, the “IC50 (read off the curve)” value in assay [7] was about 0.08 µg/mL.

B4: 320-191 (antibody, human IgG1, name in Kabat numbering, V domains shown)
VH: B1 VH
VL: B1 VL with W81Y
notes: human IgG1, lambda
With B4, in assay [2], the Antibody IC50, TL1A induced caspase potency assay in TF-1 cells was determined as 0.02 µg/mL and the Fold improvement over 320-179, TL1A induced caspase potency assay in TF-1 cells came out at 2 fold. For the same molecule, the “TL1A Binding Level (Early)” value in assay [3] was 140 RU. Further, the “TL1A Binding Level (Late)” value in assay [4] is 117 RU.

B5: 320-584 (antibody, human IgG1, name in Kabat numbering, V domains shown)
VH: B1 VH
VL: B1 VL with L33S, W81L, Y93W
notes: human IgG1, lambda
Take B5: in assay [8], the “IC50 (read off the curve)” value is about 2 µg/mL.

B6: 320-583 (antibody, human IgG1, name in Kabat numbering, V domains shown)
VH: B1 VH
VL: B1 VL with G32A, W81L, Y93W
notes: human IgG1, lambda
Regarding B6, in assay [8], the “IC50 (read off the curve)” value was about 1 µg/mL.

B7: 320-585 (antibody, human IgG1, name in Kabat numbering, V domains shown)
VH: B1 VH
VL: B1 VL with L33Q, W81L, Y93W
notes: human IgG1, lambda
Take B7: the “IC50 (read off the curve)” value in assay [8] is about 2 µg/mL.

B8: 320-586 (antibody, human IgG1, name in Kabat numbering, V domains shown)
VH: B1 VH
VL: B1 VL with H36L, W81L, Y93W
notes: human IgG1, lambda
Turning to B8, the “IC50 (read off the curve)” value in assay [8] was about 2 µg/mL.

B9: 320-547 (antibody, human IgG1, name in Kabat numbering, V domains shown)
VH: B1 VH with N57Y
VL: B1 VL with W81L
notes: human IgG1, lambda
Take B9: the “IC50 (read off the curve)” value in assay [7] is about 0.07 µg/mL.
